From US4959351A, “Crystal suspensions of insulin derivatives, processes for their preparation and their use” (Hoescht Aktiengesellschaft, priority 1983, dated 1990)

assay: Specific biological activity of the insulin substance used (I.U./mg); details: as stated in the composition

Substance	specific activity [I.U./mg]
Porcine insulin--Arg^B31 --Arg^B32 --OH [Insulin-Arg^B31 -Arg^B32 -OH from pigs]	27.0
human insulin--Arg^B31 --OH [Human insulin-Arg^B31 -OH]	27.5
human insulin--Arg^B31 -Lys--^B32 --OCH3 [Human insulin-Arg^B31 -Lys^B31 -OCH3]	27.0
human insulin-B30-choline ester [human insulin-(B30)-choline ester]	28.0
human insulin--Arg^B31 --Arg^B32 --OH	27.0
